Assay results published in the RNAGym collection of RNA variant scans (doi:10.7554/elife.80360).

B1: HDV Ribozyme (parent)
chain: GGCCGGCAUGGUCCCAGCCUCCUCGCUGGCGCCGGCUGGGCAACAUUCCGAGGGGACCGUCCCCUCGGUAAUGGCGAAUGGGACCCA

Variants of: B1
Test: self-cleavage, relative activity (ratio to wild type); higher = more cleavage; co-transcriptional
C36G A70U gave a self-cleavage of 0.119.
With C36A C48G the self-cleavage was 0.203.
Work on G35C G73C yielded a self-cleavage of 0.269.
In the case of C36A U46G, the self-cleavage is reported as 0.123.
Work on C36A G82A yielded a self-cleavage of 0.071.
With C36G U69A the self-cleavage was 0.229.
For C36G U69C, the self-cleavage was 0.155.
C36G U69G gave a self-cleavage of 0.0554.
Variant G35C C85A has a self-cleavage of 0.213.
G35C G39C gave a self-cleavage of 0.119.
With C36U A83U the self-cleavage was 0.408.
In the case of G35U C64U, the self-cleavage is reported as 0.449.
In the case of G35C U46A, the self-cleavage is reported as 0.101.
With G35U C61G the self-cleavage was 0.286.
Work on G35U C61U yielded a self-cleavage of 0.554.
With G35C G59A the self-cleavage was 0.256.
Variant G35U G40U has a self-cleavage of 0.12.
For G35U G40A, the self-cleavage was 0.304.
Work on C36U C57U yielded a self-cleavage of 0.679.
C36A G73C gave a self-cleavage of 0.178.
For C36G U65C, the self-cleavage was 0.18.
With C36G U79G the self-cleavage was 0.0437.
Work on C36G C41U yielded a self-cleavage of 0.199.
Work on C36G C63G yielded a self-cleavage of 0.212.
In the case of C36G C63A, the self-cleavage is reported as 0.269.
In the case of C36A U69G, the self-cleavage is reported as 0.161.
C36U A51G showed a self-cleavage of 0.652.
C36G G68C gave a self-cleavage of 0.17.
Work on C36G G68A yielded a self-cleavage of 0.233.
In the case of C36G G38U, the self-cleavage is reported as 0.199.
Variant C36G C64U has a self-cleavage of 0.138.
C36G C64G showed a self-cleavage of 0.156.
In the case of G35C U60G, the self-cleavage is reported as 0.353.
In the case of C36G C48G, the self-cleavage is reported as 0.
Variant C36G G39C has a self-cleavage of 0.232.
C36U C63U gave a self-cleavage of 0.904.
In the case of G35U U79A, the self-cleavage is reported as 0.166.
Work on C36U C62A yielded a self-cleavage of 0.53.
In the case of C36U G50U, the self-cleavage is reported as 0.841.
With G35C C57G the self-cleavage was 0.201.
Work on C36A C85U yielded a self-cleavage of 0.158.
Variant G35C G50C has a self-cleavage of 0.0923.
For G35U C41U, the self-cleavage was 0.63.
Variant G35C G74U has a self-cleavage of 0.133.
Variant G35U C49U has a self-cleavage of 0.554.
Variant C36G A78U has a self-cleavage of 0.0346.
Variant C36G A78G has a self-cleavage of 0.0639.
G35C C63G showed a self-cleavage of 0.0449.
In the case of C36A C75U, the self-cleavage is reported as 0.0963.
With G35C U79G the self-cleavage was 0.214.
For C36A U79C, the self-cleavage was 0.086.
G35C U69C showed a self-cleavage of 0.291.
In the case of G35U A87G, the self-cleavage is reported as 0.257.
C36G A45C showed a self-cleavage of 0.0504.
For C36G A45G, the self-cleavage was 0.185.
With G35C C61G the self-cleavage was 0.217.
In the case of C36A A87G, the self-cleavage is reported as 0.125.
With C36A A56C the self-cleavage was 0.131.
C36A C61G gave a self-cleavage of 0.269.
G35C G76U gave a self-cleavage of 0.465.
With G35C G68U the self-cleavage was 0.305.
Work on C36A A51C yielded a self-cleavage of 0.277.
For C36A A51G, the self-cleavage was 0.269.
For C36A A51U, the self-cleavage was 0.17.
For C36G G67U, the self-cleavage was 0.0361.
C36G G67A showed a self-cleavage of 0.157.
Variant C36A C44A has a self-cleavage of 0.19.
Work on C36A C44U yielded a self-cleavage of 0.208.
For C36G G52C, the self-cleavage was 0.166.
Variant G35U U69A has a self-cleavage of 0.212.
For C36G G73A, the self-cleavage was 0.0723.
With C36G G73C the self-cleavage was 0.185.
C36A G76A showed a self-cleavage of 0.266.
In the case of C36A C63A, the self-cleavage is reported as 0.237.
Work on C36G A43U yielded a self-cleavage of 0.0755.
For G35U G52C, the self-cleavage was 0.366.
With C36U C64U the self-cleavage was 0.628.
Variant C36G A83G has a self-cleavage of 0.151.
C36G A83C showed a self-cleavage of 0.0831.
C36G C62U gave a self-cleavage of 0.246.
For C36A U47A, the self-cleavage was 0.196.
Work on C36U A43G yielded a self-cleavage of 0.196.
With G35C U47A the self-cleavage was 0.0594.
For C36G A71U, the self-cleavage was 0.095.
G35C C64A gave a self-cleavage of 0.113.
For C36G C61A, the self-cleavage was 0.116.
Variant C36G G53C has a self-cleavage of 0.158.
Variant C36A G59C has a self-cleavage of 0.0978.
C36A G80U gave a self-cleavage of 0.0825.
Work on C36A A43G yielded a self-cleavage of 0.277.
For G35U G82A, the self-cleavage was 0.0841.
With C36U A78G the self-cleavage was 0.128.
G35U G39C gave a self-cleavage of 0.
In the case of G35U G68C, the self-cleavage is reported as 0.4.
With C36A A83C the self-cleavage was 0.0791.
C36G U47G gave a self-cleavage of 0.
In the case of G35U A70U, the self-cleavage is reported as 0.496.
Variant G35U A70G has a self-cleavage of 0.554.
In the case of G35U G73A, the self-cleavage is reported as 0.0911.
With C36U C75U the self-cleavage was 0.244.
Work on G35U G54C yielded a self-cleavage of 0.517.
Variant G35U G74A has a self-cleavage of 0.058.
G35U G74U gave a self-cleavage of 0.182.
Variant C36U A71G has a self-cleavage of 0.653.
C36U A42C gave a self-cleavage of 0.155.
C36A C84G showed a self-cleavage of 0.208.
Work on G35U C63G yielded a self-cleavage of 0.262.
G35U C63U showed a self-cleavage of 0.513.
C36G C66U showed a self-cleavage of 0.0997.
Variant C36U C58G has a self-cleavage of 0.759.
C36A C62G showed a self-cleavage of 0.17.
C36G G59U gave a self-cleavage of 0.199.
With G35U U65A the self-cleavage was 0.35.
Work on G35U U65G yielded a self-cleavage of 0.424.
In the case of G35U A83G, the self-cleavage is reported as 0.241.
In the case of G35U A83C, the self-cleavage is reported as 0.181.
For C36A C86A, the self-cleavage was 0.134.
C36A G68A showed a self-cleavage of 0.293.
G35U A45U gave a self-cleavage of 0.289.
For G35U A45C, the self-cleavage was 0.0475.
Work on G35U C84A yielded a self-cleavage of 0.308.
Work on G35U G53C yielded a self-cleavage of 0.478.
G35U G53A gave a self-cleavage of 0.42.
In the case of G35C C75G, the self-cleavage is reported as 0.391.
Work on G35U C66A yielded a self-cleavage of 0.332.
For G35U C66G, the self-cleavage was 0.458.
Work on C36G G81C yielded a self-cleavage of 0.0656.
G35U C85A gave a self-cleavage of 0.373.
Work on G35U C85G yielded a self-cleavage of 0.356.
C36G U37A showed a self-cleavage of 0.446.
In the case of C36G U37C, the self-cleavage is reported as 0.158.
C36U G39A showed a self-cleavage of 0.
C36U G39U showed a self-cleavage of 0.245.
Work on C36G U72G yielded a self-cleavage of 0.151.
In the case of G35C G40U, the self-cleavage is reported as 0.145.
With C36A G54U the self-cleavage was 0.229.
Variant C36A G54A has a self-cleavage of 0.0804.
Work on G35U A51C yielded a self-cleavage of 0.332.
Variant C36A G50C has a self-cleavage of 0.113.
With G35C G67A the self-cleavage was 0.148.
For C36U C86G, the self-cleavage was 0.703.
With C36U C86A the self-cleavage was 0.747.
C36A A77G gave a self-cleavage of 0.0791.
Variant C36A C64U has a self-cleavage of 0.237.
With G35U A42C the self-cleavage was 0.115.
G35U C44U gave a self-cleavage of 0.193.
For C36G G82A, the self-cleavage was 0.07.
C36G G82U showed a self-cleavage of 0.142.
C36G U46G gave a self-cleavage of 0.0692.
C36A G39C showed a self-cleavage of 0.128.
With G35U A77G the self-cleavage was 0.305.
For C36U A56G, the self-cleavage was 0.628.
In the case of C36G C85U, the self-cleavage is reported as 0.151.
Work on G35U U47G yielded a self-cleavage of 0.295.
Variant C36G A77U has a self-cleavage of 0.177.
Work on C36A C57U yielded a self-cleavage of 0.102.
Variant G35C C86G has a self-cleavage of 0.0489.
Variant C36U C48G has a self-cleavage of 0.831.
In the case of G35U G55A, the self-cleavage is reported as 0.477.
Variant G35U G55C has a self-cleavage of 0.409.
In the case of G35U U46A, the self-cleavage is reported as 0.116.
For G35U U46G, the self-cleavage was 0.141.
Variant C36G C44A has a self-cleavage of 0.128.
Work on G35C G54C yielded a self-cleavage of 0.17.
With G35U U72C the self-cleavage was 0.0811.
Work on G35C C58G yielded a self-cleavage of 0.161.
Work on G35C C58U yielded a self-cleavage of 0.231.
